What all share (assay type): cell-based, human
One data set relates to SAHep cells. Description: FAM-Aβ1-42 internalization by SAHep cells, flow cytometry. Conditions: FAM-Aβ1-42, 4.5–7.5 μg/mL of h rTTR, 3 hours, 37 °C, N = 3. As to the method:
For the study with hepatocytes, SAHep cells were grown in 6-well plates coated with collagen type I and after 24 hours cells were incubated with FAM-Aβ1-42 in the presence or absence of h rTTR (136 nM) for 3 hours at 37 °C. For primary hepatocytes, after 48 hours of seeding, cells were incubated with FAM-Aβ1-42 (100 nM), with the advantage of no need for TTR addition. For hepatocytes derived from TTR−/− mice, we also examined the effect of h rTTR on FAM-Aβ1-42 internalization. FAM-Aβ1-42 inside SAHep cells and primary hepatocytes was measured by flow cytometry (FACS Canto II, BD Biosciences).
(Flow cytometry measures light scatter and fluorescence of single cells or particles in a stream.)

Data set [1] deals with hCMEC/D3 cells. The experiment in a line: FAM-Aβ1-42 efflux from hCMEC/D3 cells, flow cytometry. Conditions: hCMEC/D3, 10 min loading with FAM-Aβ1-42, then 20 min in FAM-Aβ1-42-free media, 37 °C, mean of N = 3. On the procedure:
For efflux studies, hCMEC/D3 cells were initially incubated with FAM-Aβ1-42 for 10 minutes and then the media was removed and replaced with FAM-Aβ1-42 -free media, and further incubated for 10 and 20 minutes, at 37 °C. Finally, cells were analyzed by flow cytometry, as described above.

Data set [2] concerns hCMEC/D3 cells. The experiment in a line: FAM-Aβ1-42 uptake by hCMEC/D3 cells, flow cytometry. The note with it: hCMEC/D3, FAM-Aβ1-42 500 ng/mL (100 nM), 37 °C. On the procedure:
For quantification of Aβ1-42 uptake, hCMEC/D3 cells were plated into a 6-well plate coated with collagen type I and grown to confluence. Cells were washed with PBS and incubated for 5, 10, 15 and 30 minutes at 37 °C, with 500 ng/mL of FAM-Aβ1-42 (100 nM) in presence or absence of h rTTR (7.5 μg/mL, 136 nM). After incubation, cells were washed twice with PBS and enzymatically detached using trypsin (Gibco™), and then resuspended cells were centrifuged at 1000 rpm at RT for 5 minutes. The pellet was washed with PBS and cells recentrifuged as described above. Then the pellet was resuspended with PBS, and if necessary fixed with 4% Paraformaldehyde (PFA). Finally, cells were analyzed in FACS Canto II equipment (BD Biosciences) using Blue laser excitation of 488 nm. The flow cytometry data were analyzed using the Flowjo workstation.

In the case of “FAM-Aβ1-42: Aβ1-42 labeled with 5-(and-6)-Carboxyfluorescenin (FAM), purchased from AnaSpec”, the “Uptake of Aβ1-42 peptide by SAHep cells, maximum” value in the data set with SAHep cells is 70%. Moreover, the “FAM-Aβ1-42 efflux, fluorescent cells remaining” value was found to be 67.6% with hCMEC/D3 cells [1] (absence of TTR) and 45.5% in the data set on hCMEC/D3 cells [1] (presence of h rTTR). Further, the “FAM-Aβ1-42 uptake, fluorescent cells” value in the data set on hCMEC/D3 cells [2] (5 min, absence and presence of h rTTR 7.5 μg/mL (136 nM), N = 3) is 35–39%; in the data set with hCMEC/D3 cells [2] (10 min, absence and presence of h rTTR 7.5 μg/mL, difference not significant, N = 3), “over 57%”; with hCMEC/D3 cells [2] (15 min, absence of TTR, mean of N = 3), 61.7%; in the data set with hCMEC/D3 cells [2] (15 min, presence of h rTTR 7.5 μg/mL (136 nM), mean of N = 3), “about 73%”. Also, the “FAM-Aβ1-42 internalization with versus without TTR” value in the data set with hCMEC/D3 cells [2] (30 min, h rTTR 7.5 μg/mL versus none, N = 3) is “significantly higher in the presence of TTR”.

These data come from article PMC4738280, “Transthyretin participates in beta-amyloid transport from the brain to the liver- involvement of the low-density lipoprotein receptor-related protein 1?” (Scientific Reports, 2016).
